Data set [1] has as its target T1, human LPL^S132A/R297A (inactive lipoprotein lipase mutant) (human, UniProt P06858 28-475, S132A | R297A).
T1 sequence (looked up): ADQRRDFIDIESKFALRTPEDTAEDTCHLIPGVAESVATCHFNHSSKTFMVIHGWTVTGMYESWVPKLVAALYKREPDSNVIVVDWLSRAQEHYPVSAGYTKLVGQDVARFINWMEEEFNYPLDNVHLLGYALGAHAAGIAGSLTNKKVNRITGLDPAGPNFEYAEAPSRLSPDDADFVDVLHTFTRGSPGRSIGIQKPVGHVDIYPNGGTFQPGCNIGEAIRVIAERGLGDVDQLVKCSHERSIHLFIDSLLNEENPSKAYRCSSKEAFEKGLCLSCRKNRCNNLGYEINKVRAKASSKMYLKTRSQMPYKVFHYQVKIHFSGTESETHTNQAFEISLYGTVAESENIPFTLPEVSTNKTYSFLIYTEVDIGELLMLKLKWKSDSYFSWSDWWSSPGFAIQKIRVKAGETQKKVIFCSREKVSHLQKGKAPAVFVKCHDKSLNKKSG
Briefly: HDX-MS.

For data set [2], the target named is T1, human LPL^S132A/R297A (inactive …). Briefly: cell-based or functional assay.

B1: soluble truncated human GPIHBP1 (residues 1 to 131) (domain or fragment, UniProt Q8IV16 21-151, looked up)
chain: QTQQEEEEEDEDHGPDDYDEEDEDEVEEEETNRLPGGRSRVLLRCYTCKSLPRDERCNLTQNCSHGQTCTTLIAHGNTESGLLTTHSTWCTDSCQPITKTVEGTQVTMTCCQSSLCNVPPWQSSRVQDPTG
As to B1, the binding result in data set [1] is on record as “binds”.

B2: APOC2^wt (apolipoprotein C2, N-terminal 6xHis-tag) (natural protein, UniProt P02655 23-101, looked up)
chain: TQQPQQDEMPSPTFLTQVKESLSSYWESAKTAAQNLYEKTYLPAVDEKLRDLYSKSTAAMSTYTGIFTDQVLSVLKGEE
B2: the “onset of LPL aggregation (turbidity, proxy for Tm) against APOC2^Q70E” value in data set [2] was more than 20 °C.
